One block for each substance: values may come before it.
What was measured:
[1] = test system: GPR103; settings: cited from earlier work
Excerpt: GPR103 is a Gi/o- and Gq-coupled GPCR expressed in the adrenal gland and various regions of the brain such as the hypothalamus, which plays a crucial role in the regulation of energy metabolism and appetite control. […] In this study, we focused on the structural analysis complexed with Gq. To facilitate expression and purification, we truncated the C-terminal residues after G366 of human GPR103. […] (Supplementary Fig. 1a–d and Supplementary Table 1). […] The heptapeptide is conserved from fish to mammals, except for S23 (Supplementary Fig. 6a), consistent with the fact that the S23 side chain poorly interacts with the receptor. The receptor residues interacting with the heptapeptide are highly conserved among the homologs (Supplementary Fig. 6b, c). Accordingly, this observed heptapeptide-TMD interaction plays a key role in evolutionarily conserved GPR103 activation.

[2] = cited from earlier work
Excerpt: GPR103 is a Gi/o- and Gq-coupled GPCR expressed in the adrenal gland and various regions of the brain such as the hypothalamus, which plays a crucial role in the regulation of energy metabolism and appetite control. QRFP and GPR103 are implicated in a variety of physiological functions ranging from the modulation of feeding behavior to the regulation of energy homeostasis, cardiovascular function, and bone formation. ... || In the current study, we have not only elucidated the architecture of the receptor but also shed light on the structure of QRFP itself, potentially paving the way for the modulation of QRFP-neurons (Q-neurons)[46]. […] The QRFP-induced hibernation-like state (QIH) provides an unusual model to study metabolic suppression for therapeutic purposes, as well as artificial hibernation. QIH through pharmacogenetics[47] or optogenetics[48] is achievable in murine models, ...

[3] = target: GPR103 C98^2.57A (human) (UniProt Q96P65)
[4] = target: GPR103 alanine mutant of Y29^N-term (human) (UniProt Q96P65)
[5] = target: GPR103 alanine mutant of F25^N-term (human) (UniProt Q96P65)
[6] = target: GPR103 alanine mutant of F11^N-term (human) (UniProt Q96P65)
[7] = target: GPR103 Q125^3.32 mutant (human) (UniProt Q96P65)
[8] = target: GPR103 E203^ECL2A (human) (UniProt Q96P65)
[9] = target: GPR103 E297^6.59A (human) (UniProt Q96P65)
[10] = target: GPR103 T102^2.61 mutant (human) (UniProt Q96P65)
[11] = target: GPR103 Q318^7.39A (human) (UniProt Q96P65)
Chain of GPR103 Q318^7.39A (human) (Q96P65 whole entry Q318A): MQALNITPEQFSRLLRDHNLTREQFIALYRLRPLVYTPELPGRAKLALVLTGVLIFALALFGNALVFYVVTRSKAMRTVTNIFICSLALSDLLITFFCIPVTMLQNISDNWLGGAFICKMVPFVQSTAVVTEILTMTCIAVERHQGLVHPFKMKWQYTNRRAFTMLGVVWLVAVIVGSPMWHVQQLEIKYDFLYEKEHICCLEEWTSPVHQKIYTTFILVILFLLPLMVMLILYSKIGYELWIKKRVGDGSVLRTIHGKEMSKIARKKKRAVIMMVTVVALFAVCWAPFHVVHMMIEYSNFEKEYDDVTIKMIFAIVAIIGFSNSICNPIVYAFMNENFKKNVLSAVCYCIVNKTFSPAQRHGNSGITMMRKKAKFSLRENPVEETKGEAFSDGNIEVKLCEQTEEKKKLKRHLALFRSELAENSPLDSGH

Chain of GPR103 alanine mutant of F25^N-term (human) (Q96P65 other isoform, or with tags, fused parts or gaps mutant): as the sequence (Q96P65 whole entry Q318A) above, with F25A, A318Q counted along it
Chain of GPR103 alanine mutant of Y29^N-term (human) (Q96P65 other isoform, or with tags, fused parts or gaps mutant): as the sequence (Q96P65 whole entry Q318A) above, with Y29A, A318Q counted along it
Chain of GPR103 alanine mutant of F11^N-term (human) (Q96P65 other isoform, or with tags, fused parts or gaps mutant): as the sequence (Q96P65 whole entry Q318A) above, with F11A, A318Q counted along it
Chain of GPR103 E297^6.59A (human) (Q96P65 whole entry E297A): as the sequence (Q96P65 whole entry Q318A) above, with E297A, A318Q counted along it
Chain of GPR103 Q125^3.32 mutant (human) (Q96P65 whole entry, change not shown): as the sequence (Q96P65 whole entry Q318A) above, with A318Q counted along it
Chain of GPR103 T102^2.61 mutant (human) (Q96P65 whole entry, change not shown): as the sequence (Q96P65 whole entry Q318A) above, with A318Q counted along it
Chain of GPR103 E203^ECL2A (human) (Q96P65 whole entry E203A): as the sequence (Q96P65 whole entry Q318A) above, with E203A, A318Q counted along it
Chain of GPR103 C98^2.57A (human) (Q96P65 whole entry C98A): as the sequence (Q96P65 whole entry Q318A) above, with C98A, A318Q counted along it

Substance: EDEGSEATGFLPAAGEKTSGPLGNLAEELNGYSRKKGGFSFRF [QRFP43, pyroglutamylated RF-amide peptide, 43-amino acid RF-amide peptide with a pyroglutamylated N-terminus]
activity for GPR103 (in words) ([1]; ref [5]–[7]): specific activity for GPR103
food intake and fat mass (in words) ([2]; QRFP administration, ref [11]): increased food intake and fat mass
glucose-induced insulin release (in words) ([2]; QRFP administration, ref [11]): reducing glucose-induced insulin release
osteopenia and nociception (in words) ([2]; QRFP administration, ref [11]): may also cause osteopenia and facilitate nociception
orexigenic activity (in words) ([2]; ref [5]–[7]): orexigenic activity
hypothermia and metabolism (in words) ([2]; ref [46]): capable of inducing an extended state of hypothermia and reduced metabolism

Substance: GGFSFRF [C-terminal heptapeptide, C-terminal heptapeptide of QRFP26 (GGFSFRF)]
GPR103 activation (in words) ([1]; ref [27],[28]): sufficient to activate GPR103
affinity (in words) ([1]; ref [27],[28]): reduced affinity

QRFP26-induced activation of GPR103, TGFα shedding assay (reduction of potency against wild type) [3]: 3 fold
QRFP26-induced activation of GPR103, TGFα shedding assay (reduction of potency against wild type) [4]: 10 fold
QRFP26-induced activation of GPR103, TGFα shedding assay (reduction of potency against wild type) [5]: 10 fold
QRFP26-induced activation of GPR103, TGFα shedding assay (reduction of potency against wild type) [6]: 10 fold
QRFP26-induced activation of GPR103, TGFα shedding assay (reduction of potency against wild type) [7]: > 3 fold
QRFP26-induced activation of GPR103, TGFα shedding assay (reduction of potency against wild type) [8]: 3 fold
QRFP26-induced activation of GPR103, TGFα shedding assay (reduction of potency against wild type) [9]: 10 fold
QRFP26-induced activation of GPR103, TGFα shedding assay (reduction of potency against wild type) [10]: > 3 fold
QRFP26-induced activation of GPR103, TGFα shedding assay (reduction of potency against wild type) [11]: > 3 fold
Substance: QRFP26 (from UniProt P83859 91-136) (peptide)
